Test results published in patent US20240024501A1 (BONUM THERAPEUTICS, published 2024).

T1: LRRC15-hFc (Sino Biologicals, 15786-H02H) (UniProt Q8TF66 22-538)
T1 construct: also called LRRC15-Fc
T1 sequence (looked up): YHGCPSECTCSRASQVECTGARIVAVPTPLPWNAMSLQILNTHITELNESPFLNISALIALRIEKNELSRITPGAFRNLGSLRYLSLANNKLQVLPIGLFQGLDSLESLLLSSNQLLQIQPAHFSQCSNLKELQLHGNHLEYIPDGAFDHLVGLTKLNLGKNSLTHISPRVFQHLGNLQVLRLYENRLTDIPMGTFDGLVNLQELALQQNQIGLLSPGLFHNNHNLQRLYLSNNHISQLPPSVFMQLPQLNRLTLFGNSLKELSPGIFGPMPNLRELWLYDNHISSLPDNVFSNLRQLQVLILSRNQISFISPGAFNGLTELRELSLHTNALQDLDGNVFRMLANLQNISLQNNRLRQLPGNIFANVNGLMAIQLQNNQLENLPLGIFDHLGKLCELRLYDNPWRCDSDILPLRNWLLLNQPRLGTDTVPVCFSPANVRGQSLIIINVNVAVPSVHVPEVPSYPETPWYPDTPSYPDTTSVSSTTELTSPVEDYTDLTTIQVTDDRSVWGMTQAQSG


Tests used:
[1] = target: T2, PD-L1 (Eu-labeled) (UniProt Q9NZQ7 19-238, limits assumed, Eu label); assay: HTRF
T2 construct: also called Eu-labeled PD-L1
Method: The cell-free expression samples containing V5-tagged scFvs were serially diluted in a 384-well plate. […] Plates were incubated at room temperature for 2 hours and the HTRF signal was read on an Envision (Perkin Elmer) equipped with an HTRF laser module.

[2] = target: T3, human IL-2 (human, UniProt P60568 21-153, biotin label in the IL2RB blocking assay); assay: HTRF, IL-2:Fc-IL2RB
T3 construct: also called biotin-labeled IL-2 (Acro Biosystems IL2-H82E4)
T3 sequence (P60568 21-153 limits assumed): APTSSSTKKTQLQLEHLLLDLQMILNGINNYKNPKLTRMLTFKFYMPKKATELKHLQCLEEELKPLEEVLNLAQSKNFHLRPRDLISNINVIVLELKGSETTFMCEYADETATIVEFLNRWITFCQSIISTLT
From the text: (§1) The PURExpress scFv proteins were used directly in HTRF binding assays and cell-based functional assays.

[3] = target: PD-1 (human, UniProt Q15116 25-167, limits assumed); assay: HTRF
PD-1, sequence (Q15116 25-167 limits assumed): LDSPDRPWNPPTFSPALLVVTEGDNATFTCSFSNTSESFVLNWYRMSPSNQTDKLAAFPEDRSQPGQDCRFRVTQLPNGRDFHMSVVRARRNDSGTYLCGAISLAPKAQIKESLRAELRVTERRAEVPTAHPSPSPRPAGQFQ
From the text: as §1

[4] = target: T3, human IL-2; assay: HTRF
From the text: as §1

[5] = target: T1, LRRC15-hFc (Sino Biologicals, …); assay: ELISA (Example 33): cell-free expressed scFv on LRRC15; x axis Log (concentration, nM)
From the text: Proteins were expressed using the PUREfrex2.1 cell-free transcription/translation system as described in previous examples.

Binder	PDL1 Binding (HTRF signal) [1]	binding result [5]	other results
PD1-R04-C10 (scFv) MSTSTEQKLISEEDLQVQLVQSGAEVKKPGASVKVSCKASGYTFTTYYMHWVRQAPGQGLEWMGIINPSGGGTLYAQKFQGRVTMTRDTSTSTVYMELSSLRSEDTAVYYCAAGLFIWGQGTTVTVSSASGGGGSGGGGSGGGGSHASDIVMTQSPDSLAVSLGERATINCKASQSLLHSSSNKNYLAWYQQKPGQPPKLLIYWASTRESGVPDRFSGSGSGTDFTLTISSLQAEDVAVYYCQQYYSTPITFGPGTKVDIKGSGLNDIFEAQKIEWHEGKPIPNPLLGLDST	–	–	IL2RB Blocking (HTRF signal) [2]: 1550; PD1 Binding (HTRF signal) [3]: 1550; IL2 Binding (HTRF signal) [4]: 4
i47_A12 (scFv) scFv: MSTSTQVQLVQSGAEVKKPGSSVKVSCKASGYTFINNDINWVRQAPGQGLEWMGGTIPIFGVHIYAQKFQGRVTITADESTSTAYMELSSLRSEDTAVYYCVSSVGAGAYYYYGMDVWGQGTLVTVSSASGGGGSGGGGSGGGGSHASDIQMTQSPSSLSASVGDRVTITCQASQDISNYLNWYQQKPGKAPKLLIYAASSLQSGVPSRFSGSGSGTDFTLTISSLQPEDFATYYCQQSYSLPYTFGQGTRLEIKRAAAGSGSEQKLISEEDLGKPIPNPLLGLDST	–	binds	–
PDL1-IFN-R01-B12 (scFv, expressed cell-free as Myc tag + scFv + V5 tag) scFv: QVQLVQSGAEVKKPGASVKVSCKASGNTFTDYYMHWVRQAPGQGLEWMGWMNPNSGNTGYAQKFQGRVTMTRDTSTSTVYMELSSLRSEDTAVYYCARSLFPTIFGVEVAFDIWGQGTLVTVSSASGGGGSGGGGSGGGGSHASDIQMTQSPSSLSASVGDRVTITCQASQDISNYLNWYQQKPGKAPKLLIYAASSLQSGVPSRFSGSGSGTDFTLTISSLQPEDFATYYCQQSYSTPPTFGQGTRLEIK	2980	–	–
PDL1-IFN-R01-A11 (scFv, expressed cell-free as Myc tag + scFv + V5 tag) scFv: QVQLVQSGAEVKKPGASVKVSCKASGGTFSSYYMHWVRQAPGQGLEWMGWMNPNSGNTGYAQKFQGRVTMTRDTSTSTVYMELSSLRSEDTAVYYCARSLFPTIFGVEVAFDIWGQGTLVTVSSASGGGGSGGGGSGGGGSHASDIQMTQSPSSLSASVGDRVTITCQASQDITNYLNWYQQKPGKAPKLLIYAASSLESGVPSRFSGSGSGTDFTLTISSLQPEDFATYYCQQSYSIPITFGQGTRLEIK	2960	–	–
PDL1-IFN-R01-B09 (scFv, expressed cell-free as Myc tag + scFv + V5 tag) scFv: QVQLVQSGAEVKKPGASVKVSCKASGGTFTGYYMHWVRQAPGQGLEWMGWVNPNSGNTGYAQKFQGRVTMTRDTSTSTVYMELSSLRSEDTAVYYCARSLFPTIFGVEVAFDIWGQGTLVTVSSASGGGGSGGGGSGGGGSHASDIQMTQSPSSLSASVGDRVTITCQASQDISNYLNWYQQKPGKAPKLLIYAASSLQSGVPSRFSGSGSGTDFTLTISSLQPEDFATYYCQQSYSPPPTFGQGTKLEIK	1380	–	–
PDL1-IFN-R01-C11 (scFv, expressed cell-free as Myc tag + scFv + V5 tag) scFv: QVQLVQSGAEVKKPGASVKVSCKASGGTFSSYAISWVRQAPGQGLEWMGWMDANNGNTGYAQKFQGRVTMTRDTSTSTVYMELSSLRSEDTAVYYCARSLFPTIFGVEVAFDIWGQGTLVTVSSASGGGGSGGGGSGGGGSHASDIQMTQSPSSLSASVGDRVTITCRASQSVSSYLNWYQQKPGKAPKLLIYKASSLESGVPSRFSGSGSGTDFTLTISSLQPEDFATYYCQQSSSTPLSFGGGTKVEIK	3040	–	–
A03 (scFv) scFv: MSTSTQVQLVQSGAEVKKPGASVKVSCKASGYTFTGYYMHWVRQAPGQGLEWMGWMDPNNDDADYAQRFQGRVTMTRDTSTSTVYMELSSLRSEDTAVYYCASLAAAGPYYYYGMDVWGQGTLVTVSSASGGGGSGGGGSGGGGSHASDIQMTQSPSSLSASVGDRVTITCRASQSINNYLNWYQQKPGKAPKLLIYGASNLETGVPSRFSGSGSGTDFTLTISSLQPEDFATYYCQQSYGTPLTFGGGTKVEIKRAAAGSGSEQKLISEEDLGKPIPNPLLGLDST	–	binds	–
PD1-R07-A05 (scFv) scFv: QVQLVQSGAEVKKPGASVKVSCKASGYTFTTYYVHWVRQAPGQGLEWMGIINPSGGSTSYAQNFQGRVTMTRDTSTSTVYMELSSLRSEDTAVYYCASGWDVWGQGTTVTVSSASGGGGSGGGGSGGGGSHASEIVMTQSPATLSVSPGERATLSCRASQSVNTYLAWYQQKPGQAPRLLIYGASTRATGIPARFSGSGSGTEFTLTISSLQSEDFAVYYCQQYGSSPVTFGQGTRLEIK	–	–	IL2RB Blocking (HTRF signal) [2]: 1730; PD1 Binding (HTRF signal) [3]: 653; IL2 Binding (HTRF signal) [4]: 19

More lines, main results first:

PDL1 Binding (HTRF signal) [1]	binding result [5]	Binder	other results
2780	–	PDL1-IFN-R01-A06 (scFv, expressed cell-free as Myc tag + scFv + V5 tag) scFv: QVQLVQSGAEVKKPGASVKVSCKASGGTFSSYAISWVRQAPGQGLEWVGWMDPKSGNTGYAQKFQGRVTMTRDTSTSTVYMELSSLRSEDTAVYYCARSLFPTIFGVEVAFDIWGQGTLVTVSSASGGGGSGGGGSGGGGSHASDIQMTQSPSSLSASVGDRVTITCQASQDINNYLNWYQQKPGKAPKLLIYKASSLEPGVPSRFSGSGSGTDFTLTISSLQPEDFATYYCQKSNDVPFTFGQGTKVEIK	–
2750	–	PDL1-IFN-R01-C08 (scFv, expressed cell-free as Myc tag + scFv + V5 tag) scFv: QVQLVQSGAEVKKPGASVKVSCKASGGTFSSYAISWVRQAPGQGLEWMGIIDPSVTYTRYAQKFQGRVTMTRDTSTSTVYMELSSLRSEDTAVYYCARSLFPTIFGVEVAFDIWGQGTLVTVSSASGGGGSGGGGSGGGGSHASDIQMTQSPSSLSASVGDRVTITCQASQDISNYLNWYQQKPGKAPKLLIYGASTLQSGVPSRFSGSGSGTDFTLTISSLQPEDFATYYCQQTYSTPITFGQGTKVEIK	–
416	–	Anti-IFN control (SEQ ID NO: 30) (scFv, control scFv; also called Anti-IFNα control) scFv: EVQLVESGGGLVQPGGSLRLSCATSGYTFTEYIIHWVRQAPGKGLEWVASINPDYDITNYNQRFKGRFTISLDKSKRTAYLQMNSLRAEDTAVYYCASWISDFFDYWGQGTLVTVSSASGGGGSGGGGSGGGGSHASDIQMTQSPSSLSASVGDRVTITCRASQSVSTSSYSYMHWYQQKPGKAPKVLISYASNLESGVPSRFSGSGSGTDFTLTISSLQPEDFATYYCQHSWGIPRTFGQGTKVEIK	–
–	binds	i47_A11 (scFv) scFv: MSTSTQVQLVQSGAEVKKPGSSVKVSCKASGYTFTSYDINWVRQAPGQGLEWMGTINPSDGDTTYAQKFQGRVTITADESTSTAYMELSSLRSEDTAVYYCARVGGWGIYYYYGMDVWGQGTLVTVSSASGGGGSGGGGSGGGGSHASDIQMTQSPSSLSASVGDRVTITCRASQSINSWLAWYQQKPGKAPKLLIYAASSLQSGVPSRFSGSGSGTDFTLTISSLQPEDFATYYCQQTYTVPFSFGQGTKLEIKRAAAGSGSEQKLISEEDLGKPIPNPLLGLDST	–
–	binds	B07 (scFv) scFv: MSTSTQVQLVQSGAEVKKPGASVKVSCKASGYTFTGYYMHWVRQAPGQGLEWMGWMDPNNDDADYAQRFQGRVTMTRDTSTSTVYMELSSLRSEDTAVYYCASLAAAGPYYYYGMDVWGQGTLVTVSSASGGGGSGGGGSGGGGSHASDIQMTQSPSSLSASVGDRVTITCQASQDISNYLNWYQQKPGKAPKLLIYGASILEAGVPSRFSGSGSGTDFTLTISSLQPEDFATYYCQQSYSAPITFGQGTRLEIKRAAAGSGSEQKLISEEDLGKPIPNPLLGLDST	–
